Reference: the supplement of paper PMC6755084

B1: F1*; the commonest letter at each place (parent)
chain: GAGACCGCAACTGAAAAGTTGTTATCACTTGTCGTAAGACACTTTGGATGGGTTGAAGTTCTGCACGTAGAAGCAAAAGGC

Variants of: B1
Test: fraction ligated after 30 min (ligated reads / total reads); higher = more ligase activity
Conditions: with F1*sub RNA substrate (template-directed ligation), 42 °C
Outline: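 The ligase ribozyme variants were produced by PCR amplification of oligo-pool templates, T7 transcription and purification on gel. Their ligated and unligated forms were gel-separated, then reverse transcribed with barcoded primers before MiSeq sequencing. Core bases were filtered at a quality of ≥20, and fraction ligated per variant was ligated reads over total reads.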

Row | Variant | fraction ligated
1 | C40G G47T | 0.438
2 | C40G G47C | 0.147
3 | A41G T44A | 0.796
4 | A41G T44G | 0.809
5 | A41G T44C | 0.76
6 | C40T A57C | 0.823
7 | C40T A57T | 0.798
8 | C40T A57G | 0.839
9 | A41C T43A | 0.781
10 | A41C T43G | 0.76
11 | A41C T43C | 0.766
12 | A41C A56T | 0.615
13 | A41C A56C | 0.503
14 | A41C A56G | 0.561
15 | A41G G50C | 0.119
16 | A41G G50A | 0.23
17 | A41G G50T | 0.609
18 | A41C T49A | 0.178
19 | A41C T49C | 0.17
20 | A41C T49G | 0.209
21 | A41T G50C | 0.268
22 | A41T G50T | 0.715
23 | A41T G50A | 0.342
24 | C40T G47T | 0.197

Row | Variant | fraction ligated
25 | C40T G47A | 0.798
26 | C40T G47C | 0.163
27 | A41G G47C | 0.178
28 | A41G G47T | 0.354
29 | A41G G47A | 0.734
30 | C40T T45G | 0.195
31 | C40T T45A | 0.791
32 | C40T T45C | 0.77
33 | A41G T49C | 0.564
34 | A41G T49G | 0.739
35 | A41G T49A | 0.671
36 | A41T T45A | 0.741
37 | A41T T45C | 0.428
38 | A41G A48T | 0.625
39 | A41G A48C | 0.736
40 | A41G A48G | 0.76
41 | A41T G55A | 0.809
42 | A41T G55C | 0.706
43 | A41T G55T | 0.81
44 | C40T T44G | 0.825
45 | C40T T44C | 0.829
46 | C40T T44A | 0.831
47 | C40T G55T | 0.816
48 | C40T G55A | 0.841

Row | Variant | fraction ligated
49 | C40T G55C | 0.782
50 | A41C T44A | 0.764
51 | A41C T44G | 0.797
52 | A41C T44C | 0.769
53 | A41G T45G | 0.119
54 | A41G T45A | 0.482
55 | A41G T45C | 0.541
56 | C40G G50A | 0.262
57 | C40G G50T | 0.548
58 | C40G G50C | 0.134
59 | A41C C42G | 0.826
60 | A41C C42A | 0.844
61 | A41C C42T | 0.812
62 | A41G A56C | 0.755
63 | A41G A56T | 0.756
64 | A41G A56G | 0.764
65 | A41G T43C | 0.744
66 | A41G T43A | 0.817
67 | A41G T43G | 0.807
68 | A41C A48C | 0.571
69 | A41C A48T | 0.736
70 | A41C A48G | 0.783
71 | C40T A48C | 0.763
72 | C40T A48G | 0.784

Row | Variant | fraction ligated
73 | C40T A48T | 0.798
74 | A41G G55A | 0.785
75 | A41G G55C | 0.663
76 | A41G G55T | 0.754
77 | C40G T43G | 0.819
78 | C40G T43A | 0.817
79 | C40G T43C | 0.811
80 | C40T A41C | 0.78
81 | C40T A41G | 0.765
82 | C40T A41T | 0.822
83 | A41C A57T | 0.785
84 | A41C A57G | 0.773
85 | A41C A57C | 0.767
86 | C40T A56T | 0.799
87 | C40T A56G | 0.801
88 | C40T A56C | 0.773
89 | A41T T44A | 0.815
90 | A41T T44G | 0.8
91 | A41T T44C | 0.806
92 | C40T T49G | 0.812
93 | C40T T49A | 0.792
94 | C40T T49C | 0.38
95 | C40G G55C | 0.659
96 | C40G G55A | 0.808

Row | Variant | fraction ligated
97 | C40G G55T | 0.794
98 | C40G T45G | 0.0145
99 | C40G T45A | 0.688
100 | C40G T45C | 0.669
101 | A41T A48T | 0.345
102 | A41T A48G | 0.762
103 | A41T A48C | 0.73
104 | A41C G46T | 0.676
105 | A41C G46A | 0.764
106 | A41C G46C | 0.639
107 | A41T A57C | 0.787
108 | A41T A57T | 0.808
109 | A41T A57G | 0.807
110 | A41G | 0.802
111 | A41T | 0.837
112 | A41C | 0.775
113 | A41G C42T | 0.83
114 | A41G C42G | 0.803
115 | A41G C42A | 0.85
116 | A41G G46A | 0.791
117 | A41G G46C | 0.768
118 | A41G G46T | 0.767
119 | C40T C42G | 0.857
120 | C40T C42T | 0.853

Row | Variant | fraction ligated
121 | C40T C42A | 0.845
122 | A41C G50T | 0.597
123 | A41C G50A | 0.28
124 | A41C G50C | 0.168
125 | A41C T45C | 0.328
126 | A41C T45A | 0.55
127 | A41C T45G | 0.0888
128 | C40T T43G | 0.782
129 | C40T T43A | 0.819
130 | C40T T43C | 0.795
131 | C40T G46C | 0.79
132 | C40T G46T | 0.792
133 | C40T G46A | 0.809
134 | A41C G47C | 0.177
135 | A41C G47T | 0.157
136 | A41C G47A | 0.228
137 | C40T | 0.833
138 | A41T A56C | 0.784
139 | A41T A56T | 0.792
140 | A41T A56G | 0.778
141 | A41T T43A | 0.822
142 | A41T T43C | 0.773
143 | A41T T43G | 0.803
144 | A41T G46C | 0.792

Row | Variant | fraction ligated
145 | A41T G46A | 0.804
146 | A41T G46T | 0.787
147 | A41G A57T | 0.76
148 | A41G A57G | 0.787
149 | A41G A57C | 0.735
150 | C40G T49C | 0.365
151 | C40G T49A | 0.683
152 | C40G T49G | 0.763
153 | C40T G50C | 0.357
154 | C40T G50A | 0.567
155 | C40T G50T | 0.784
156 | A41T C42A | 0.849
157 | A41T C42G | 0.836
158 | A41T C42T | 0.848
159 | A41T G47T | 0.418
160 | A41T G47A | 0.783
161 | A41T G47C | 0.211
162 | C40G T44C | 0.775
163 | C40G T44A | 0.841
164 | C40G T44G | 0.807
165 | A41C G55C | 0.329
166 | A41C G55T | 0.751
167 | A41C G55A | 0.804
